Laboratory results from publication doi:10.1101/2024.05.16.594476.
Values joined by “and” are separate entries in the source; they are usually repeats but may differ in a detail not shown here. Equal values may be shown once.

What was measured:
[1] = molecular target: Mtb PhoP, phosphorylated with acetyl phosphate (AcP) (Mycobacterium tuberculosis) (UniProt P71814); assay: […]
[2] = molecular target: Mtb PhoP, phosphorylated with acetyl phosphate (AcP) (Mycobacterium tuberculosis) (UniProt P71814); assay: cryo-EM structure
[3] = molecular target: Mtb PhoP, phosphorylated with acetyl phosphate (AcP) (Mycobacterium tuberculosis) (UniProt P71814); assay: […]; remark: listed apart in the source

Mtb PhoP, phosphorylated with acetyl phosphate (AcP) (from UniProt P71814 1-247) (natural protein)
stoichiometry N [1]: 2 | stoichiometry N [2]: 2 | stoichiometry N [3]: 6 and 4
